Source: publication PMC8549804 (Chemical Science, 2021)

B1: gp32-ΔCTD (amino acids 1-254) (domain or fragment, bacteriophage T4, UniProt P03695 1-254, looked up)
chain: MFKRKSTAELAAQMAKLNGNKGFSSEDKGEWKLKLDNAGNGQAVIRFLPSKNDEQAPFAILVNHGFKKNGKWYIETCSSTHGDYDSCPVCQYISKNDLYNTDNKEYSLVKRKTSYWANILVVKDPAAPENEGKVFKYRFGKKIWDKINAMIAVDVEMGETPVDVTCPWEGANFVLKVKQVSGFSNYDESKFLNQSAIPNIDDESFQKELFEQMVDLSEMTSKDKFKSFEELNTKFGQVMGTAVMGGAAATAAKK
B2: bacteriophage T4 gene product 32 (gp32) (natural protein)
chain: MFKRKSTAELAAQMAKLNGNKGFSSEDKGEWKLKLDNAGNGQAVIRFLPSKNDEQAPFAILVNHGFKKNGKWYIETCSSTHGDYDSCPVCQYISKNDLYNTDNKEYSLVKRKTSYWANILVVKDPAAPENEGKVFKYRFGKKIWDKINAMIAVDVEMGETPVDVTCPWEGANFVLKVKQVSGFSNYDESKFLNQSAIPNIDDESFQKELFEQMVDLSEMTSKDKFKSFEELNTKFGQVMGTAVMGGAAATAAKKADKVADDLDAFNVDDFNTKTEDDFMSSSSGSSSSADDTDLDDLLNDLC
modifications: disulfur monoxide moiety at Cys302 (C-terminal, attributed to the intein reaction)

Molecular target: the molecule itself
Assay: native MS

| Protein | stoichiometry N |
| --- | --- |
| B1 | 2 |
| B2 | 2 |
